{"source": "paper PMC11187910", "key": {"IDH1": {"biological_target": "IDH1 (UniProt O75874)", "sequence (O75874 whole entry T77A)": "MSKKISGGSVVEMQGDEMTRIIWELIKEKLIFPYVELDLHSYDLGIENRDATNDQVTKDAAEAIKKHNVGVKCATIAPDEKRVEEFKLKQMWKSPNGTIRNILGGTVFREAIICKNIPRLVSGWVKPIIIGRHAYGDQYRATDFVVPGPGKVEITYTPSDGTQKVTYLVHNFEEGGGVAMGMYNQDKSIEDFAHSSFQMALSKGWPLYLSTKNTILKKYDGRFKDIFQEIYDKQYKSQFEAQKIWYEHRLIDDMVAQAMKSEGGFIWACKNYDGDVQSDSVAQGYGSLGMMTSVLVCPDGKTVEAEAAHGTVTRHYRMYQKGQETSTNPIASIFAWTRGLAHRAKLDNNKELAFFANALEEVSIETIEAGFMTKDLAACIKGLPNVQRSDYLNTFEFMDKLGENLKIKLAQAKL", "test": "co-IP of Flag-IDH1 and HA-IDH1", "conditions": "reference: Flag-IDH1 wild type, MPA; sites T77"}, "isocitrate (ICT)": {"biological_target": "isocitrate (ICT)", "test": "SPR", "conditions": "1:1 binding model"}, "OCT6 (POU3F1)": {"biological_target": "OCT6 (POU3F1) (UniProt Q03052)", "test": "co-immunoprecipitation", "conditions": "reference: wild type, MPA; sites T77"}}}
{"substance": "IDH1 (from UniProt O75874) Flag-IDH1 T77A, MPA", "values": [{"measurement": "binding against the reference", "setting": "IDH1", "value": "weaker"}]}
{"substance": "recombinant IDH1 WT T77A", "values": [{"measurement": "Kd", "setting": "isocitrate (ICT)", "value": 0.112, "unit": "µM"}]}
{"substance": "IDH1 (from UniProt O75874) T77A, MPA", "values": [{"measurement": "binding against the reference", "setting": "OCT6 (POU3F1)", "value": "weaker"}]}
